± gives the standard deviation of the averaged measurements.
test system: ATP; experiment: switch fluorescence ratio, 500 uM ATP over buffer (Cy3 cluster intensity, sum of 5 cycles each) (fold (ratio)); higher = stronger signal-on switching upon ATP binding; sequences stand for … in TCGTCGGCAGCGTCAGATGTGTATAAGAGACAGTTTTTTTTTTTTTTTTTTTTTTTTT…TC; conditions: aptamer strand: ATP DNA aptamer (quencher-CACCTGGGGGAGTATTGCGGAGGAAGG + anchor), 100 nM annealed; ATP concentration: 500 uM
Method in brief: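 The fluorescence ratio divides summed target-cycle Cy3 intensity by summed buffer-cycle Cy3 intensity for each cluster and is averaged per switch-domain sequence. Cy3-labelled switching-strand clusters on a modified Illumina MiSeq flow-cell were annealed to 100 nM quencher-labelled ATP aptamer, then imaged in selection buffer and again after 15 min with 500 uM ATP at 22 °C. Five such cycles were run, with NaOH stripping and re-annealing between them, and clusters outside 100-1000 RFU were excluded.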
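Also: ATP exposure 15 min at 22 °C before imaging.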

Row | Sequence | switch fluorescence ratio
1 | TACCCTGAAA | 1.022 ± 0.0035
2 | TACCCTTCGT | 1.11 ± 0.013
3 | TACCGGGTGG | 1.06 ± 0.027
4 | TACCTAAACG | 1.08 ± 0.033
5 | TACCTTTTAA | 1.02 ± 0.026
6 | TACCTTTTGG | 0.99 ± 0.026
7 | TACGAAATTG | 1.06 ± 0.049
8 | TACGAGTGGT | 0.99394 ± 0.00054
9 | TACGATAGTC | 1.06 ± 0.069
10 | TACGATGTGG | 1.007 ± 0.0088
11 | TACGATTAGT | 0.9995 ± 0.0053
12 | TACGCACGTA | 1.31 ± 0.17
13 | TACGCATAAT | 1.37 ± 0.014
14 | TACGCTATAA | 2.824 ± 0.0042
15 | TACGGAAAGT | 1.02 ± 0.015
16 | TACGGAGGGC | 1.02 ± 0.05
17 | TACGGCAGTG | 0.998 ± 0.025
18 | TACGGCGCGA | 1.39 ± 0.58
19 | TACGGCTAAG | 1.07 ± 0.047
20 | TACGGGGCGG | 1.36 ± 0.64
21 | TACGGGGTG | 1.05 ± 0.035
22 | TACGGGGTTT | 0.996 ± 0.051
23 | TACGGGTGGG | 1.169 ± 0.01
24 | TACGGTAGGA | 0.9836 ± 0.006
25 | TACGGTGGGC | 0.977 ± 0.018

Row | Sequence | switch fluorescence ratio
26 | TACGGTTTGG | 0.988 ± 0.056
27 | TACGGTTTTT | 0.967 ± 0.019
28 | TACGTACAGC | 1.7 ± 0.076
29 | TACGTGGCGG | 1.02 ± 0.02
30 | TACGTGGTTG | 0.99 ± 0.014
31 | TACGTTCAGG | 1.02 ± 0.011
32 | TACGTTTCC | 1.138 ± 0.0089
33 | TACTAACCAT | 1.12 ± 0.066
34 | TACTAAGTGG | 1.05 ± 0.015
35 | TACTAGGGGA | 1.004 ± 0.0034
36 | TACTAGGTTT | 0.977 ± 0.019
37 | TACTAGTACA | 1.09 ± 0.018
38 | TACTATGGGC | 1.03 ± 0.055
39 | TACTATGGTC | 1.01 ± 0.07
40 | TACTATTTGT | 1.04 ± 0.063
41 | TACTATTTTT | 1 ± 0.018
42 | TACTCACTTC | 1.21 ± 0.035
43 | TACTCAGTGG | 1.01 ± 0.022
44 | TACTCCAAGA | 2.98 ± 1.1
45 | TACTCGTTGA | 1.04 ± 0.021
46 | TACTCTCCTT | 1.09 ± 0.016
47 | TACTGAATTA | 1.03 ± 0.03
48 | TACTGATTTG | 1.02 ± 0.017
49 | TACTGGGACG | 1.004 ± 0.0068
50 | TACTGGGGCG | 0.997 ± 0.082

Row | Sequence | switch fluorescence ratio
51 | TACTGGGGTA | 1.02 ± 0.028
52 | TACTGGTCCA | 1.051 ± 0.0087
53 | TACTGGTTCT | 0.984 ± 0.064
54 | TACTGTGTTA | 0.979 ± 0.026
55 | TACTTAAGTT | 1.01 ± 0.019
56 | TACTTAGGGA | 1.031 ± 0.0085
57 | TACTTATGTG | 1.01 ± 0.02
58 | TACTTGAGGC | 1.11 ± 0.21
59 | TACTTGGGTC | 1.06 ± 0.03
60 | TACTTGTCGG | 0.985 ± 0.025
61 | TACTTGTTAT | 0.989 ± 0.034
62 | TACTTTAGGT | 1.05 ± 0.019
63 | TACTTTATTT | 1.16 ± 0.21
64 | TACTTTCCCG | 1.29 ± 0.13
65 | TACTTTGCG | 1.01 ± 0.017
66 | TACTTTGCTG | 1.02 ± 0.066
67 | TACTTTTCAA | 1.01 ± 0.011
68 | TACTTTTGAA | 0.977 ± 0.022
69 | TACTTTTGCA | 0.985 ± 0.025
70 | TACTTTTTTT | 1.01 ± 0.037
71 | TAGAAAGCCT | 1.06 ± 0.045
72 | TAGAAAGTGT | 1.02 ± 0.019
73 | TAGAAATTGT | 0.997 ± 0.039
74 | TAGAAATTTG | 0.998 ± 0.03
75 | TAGAACATGG | 0.964 ± 0.061

Row | Sequence | switch fluorescence ratio
76 | TAGAAGGGAT | 0.987 ± 0.016
77 | TAGAAGGGGA | 0.994 ± 0.044
78 | TAGAAGTCTG | 1.06 ± 0.012
79 | TAGAATCGTT | 0.97 ± 0.05
80 | TAGAATGGAA | 1.02 ± 0.012
81 | TAGAATGTGT | 1.027 ± 0.0043
82 | TAGACTTTAG | 1.0314 ± 0.0007
83 | TAGACTTTAT | 1.02 ± 0.029
84 | TAGAGAAATT | 0.976 ± 0.023
85 | TAGAGACTAA | 0.979 ± 0.029
86 | TAGAGCGGGG | 0.99 ± 0.02
87 | TAGAGGAGTG | 0.9599 ± 0.0086
88 | TAGAGGCTAA | 0.977 ± 0.013
89 | TAGAGGGCCA | 1.01 ± 0.044
90 | TAGAGGGGGC | 0.987 ± 0.025
91 | TAGAGTAGAT | 1.01 ± 0.02
92 | TAGATAAACT | 0.9969 ± 0.0039
93 | TAGATAGAAT | 1 ± 0.045
94 | TAGATAGCTT | 1.0112 ± 0.001
95 | TAGATATGGT | 0.989 ± 0.021
96 | TAGATCATGT | 1.016 ± 0.0026
97 | TAGATGAGAG | 0.969 ± 0.012
98 | TAGATGATGT | 1.004 ± 0.01
99 | TAGATGGGGT | 1.01 ± 0.031
100 | TAGATGGGTC | 1.01 ± 0.013

Row | Sequence | switch fluorescence ratio
101 | TAGATGGTAG | 0.973 ± 0.016
102 | TAGATGGTTT | 0.97 ± 0.036
103 | TAGATGTATT | 0.974 ± 0.013
104 | TAGATTCAGG | 1.004 ± 0.0054
105 | TAGATTGGCG | 0.981 ± 0.043
106 | TAGATTTCGT | 0.9797 ± 0.0052
107 | TAGCAAAAAG | 1.02 ± 0.031
108 | TAGCAAAAGG | 1.03 ± 0.015
109 | TAGCAATGTT | 1.64 ± 0.52
110 | TAGCACTATC | 1.35 ± 0.076
111 | TAGCAGAGGG | 1.01 ± 0.023
112 | TAGCAGTATT | 1.07 ± 0.065
113 | TAGCATCTGG | 0.98 ± 0.039
114 | TAGCATCTTT | 0.98 ± 0.067
115 | TAGCATGTAC | 5.22 ± 0.65
116 | TAGCATTGTG | 1.02 ± 0.022
117 | TAGCCAGCTC | 0.996 ± 0.034
118 | TAGCCGCTTT | 1.065 ± 0.0087
119 | TAGCGAAACT | 1.14 ± 0.032
120 | TAGCGATGCG | 1.031 ± 0.0042
121 | TAGCGCAGGC | 0.996 ± 0.025
122 | TAGCGGGCCG | 1.01 ± 0.039
123 | TAGCGGGGCA | 0.996 ± 0.046
124 | TAGCGGGTAC | 1.28 ± 0.087
125 | TAGCGGGTCA | 0.966 ± 0.012

Row | Sequence | switch fluorescence ratio
126 | TAGCGGTTGT | 0.999 ± 0.021
127 | TAGCGTGTAG | 1.02 ± 0.022
128 | TAGCGTTAGG | 1.029 ± 0.0049
129 | TAGCGTTTTT | 0.97 ± 0.018
130 | TAGCTCGTTT | 0.995 ± 0.038
131 | TAGCTGGGGC | 1.02 ± 0.037
132 | TAGCTGTAAT | 1.02 ± 0.046
133 | TAGCTGTCAC | 1.04 ± 0.04
134 | TAGCTGTTGT | 0.993 ± 0.027
135 | TAGCTTTTTT | 1.002 ± 0.0045
136 | TAGGAAAAAG | 0.975 ± 0.013
137 | TAGGAATGGG | 0.989 ± 0.034
138 | TAGGACGCGG | 1.04 ± 0.052
139 | TAGGACTCAT | 1.009 ± 0.0082
140 | TAGGAGCAGG | 1.09 ± 0.021
141 | TAGGAGGCTA | 0.976 ± 0.035
142 | TAGGAGGTAT | 1.01 ± 0.048
143 | TAGGAGGTTT | 1.067 ± 0.0013
144 | TAGGAGTAAC | 0.9812 ± 0.0037
145 | TAGGAGTTAT | 1.01 ± 0.04
146 | TAGGATGCAG | 0.957 ± 0.042
147 | TAGGATGGCT | 0.959 ± 0.072
148 | TAGGATGGGT | 0.99 ± 0.017
149 | TAGGATGGTT | 0.984 ± 0.013
150 | TAGGATTCTC | 0.979 ± 0.023

Row | Sequence | switch fluorescence ratio
151 | TAGGATTGGC | 1.04 ± 0.018
152 | TAGGCCTGGG | 1 ± 0.0033
153 | TAGGCGAGTT | 0.98 ± 0.0021
154 | TAGGCGGAGC | 1.033 ± 0.0063
155 | TAGGCGGATA | 1.008 ± 0.0023
156 | TAGGCGGGTG | 1.03 ± 0.023
157 | TAGGCGTACG | 1.08 ± 0.006
158 | TAGGCTAGGT | 1.017 ± 0.0047
159 | TAGGCTGAGG | 1.002 ± 0.0063
160 | TAGGCTGTAC | 2.84 ± 1.6
161 | TAGGCTTAGC | 0.9671 ± 0.0069
162 | TAGGCTTTTT | 0.9925 ± 0.0075
163 | TAGGGAAAAC | 1.05 ± 0.12
164 | TAGGGAAATT | 1.04 ± 0.021
165 | TAGGGACGTT | 0.988 ± 0.013
166 | TAGGGAGGGA | 0.9801 ± 0.0069
167 | TAGGGAGTCA | 0.971 ± 0.019
168 | TAGGGATAGT | 0.9986 ± 0.0052
169 | TAGGGATATA | 0.985 ± 0.035
170 | TAGGGATCCC | 1.04 ± 0.028
171 | TAGGGCAAGT | 1.01 ± 0.016
172 | TAGGGCACGG | 1.02 ± 0.035
173 | TAGGGCATTT | 1.03 ± 0.056
174 | TAGGGCCACG | 1.01 ± 0.018
175 | TAGGGCGGGG | 0.988 ± 0.025

Row | Sequence | switch fluorescence ratio
176 | TAGGGCTTAA | 0.993 ± 0.042
177 | TAGGGGAAAT | 0.994 ± 0.024
178 | TAGGGGAACC | 0.9693 ± 0.0092
179 | TAGGGGACGT | 0.992 ± 0.063
180 | TAGGGGAGGC | 0.984 ± 0.016
181 | TAGGGGATAG | 1.02 ± 0.032
182 | TAGGGGCGGC | 1.01 ± 0.056
183 | TAGGGGCGGG | 0.971 ± 0.025
184 | TAGGGGGAAG | 0.9792 ± 0.0033
185 | TAGGGGGACG | 1.04 ± 0.068
186 | TAGGGGGATT | 1.014 ± 0.0089
187 | TAGGGGGCGT | 0.987 ± 0.0032
188 | TAGGGGGGAC | 1.19 ± 0.34
189 | TAGGGGGTCT | 1.21 ± 0.47
190 | TAGGGGTACT | 1.41 ± 0.61
191 | TAGGGGTATG | 1.06 ± 0.096
192 | TAGGGGTCTC | 1.07 ± 0.038
193 | TAGGGGTGGG | 1.0453 ± 0.00085
194 | TAGGGGTGTA | 1 ± 0.04
195 | TAGGGGTTGT | 1.02 ± 0.028
196 | TAGGGTAAGT | 0.9905 ± 0.0089
197 | TAGGGTATAT | 0.986 ± 0.015
198 | TAGGGTCGGT | 1 ± 0.041
199 | TAGGGTGAGT | 1.02 ± 0.035
200 | TAGGGTGTTG | 1.01 ± 0.021

From the supplement of paper PMC10126150
